Measured values as given in patent US20210388087A1 (Chugai, published 2021).
Where a chain is given by its changes, count along the chain named. Names may count otherwise.

T1: Human CD3eg linker (human)
T1 construct: single-chain construct; also called recombinant human CD3
T1 chain: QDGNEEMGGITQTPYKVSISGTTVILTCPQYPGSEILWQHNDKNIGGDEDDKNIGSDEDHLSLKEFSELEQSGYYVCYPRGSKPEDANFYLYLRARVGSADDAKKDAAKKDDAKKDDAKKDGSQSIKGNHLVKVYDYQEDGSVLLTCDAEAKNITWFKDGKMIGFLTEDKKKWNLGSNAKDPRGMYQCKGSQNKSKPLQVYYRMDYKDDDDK

B1: dBBDu183H S62F/dBBDu072L (antibody, name in Kabat numbering, V domains shown)
VH: QVQLVESGGGLVQPGRSLRLSCAASGFTFSNAWMHWVRQAPGKGLEWVAQIKDKGNAYAAYYAPFVKGRFTISRDDSKNSIYLQMNSLKTEDTAVYYCHYVHYASASTVLPAFGVDAWGQGTTVTVSS
VL: DIVMTQSPLSLPVTPGEPASISCQASQELVHMNRNTYLHWYQQKPGQAPRLLIYKVSNRFPGVPDRFSGSGSGTDFTLKISRVEAEDVGVYYCAQGTSVPFTFGQGTKLEIK
B2: dBBDu183H S99V/dBBDu072L (antibody, name in Kabat numbering, V domains shown)
VH: B1 VH with F65S, S105V
VL: B1 VL
B3: dBBDu183H T100bG/dBBDu072L (antibody, name in Kabat numbering, V domains shown)
VH: B1 VH with F65S, T108G
VL: B1 VL
B4: dBBDu183H S99Q/dBBDu072L (antibody, name in Kabat numbering, V domains shown)
VH: B1 VH with F65S, S105Q
VL: B1 VL
B5: dBBDu183H S99N/dBBDu072L (antibody, name in Kabat numbering, V domains shown)
VH: B1 VH with F65S, S105N
VL: B1 VL
B6: dBBDu183H S99E/dBBDu072L (antibody, name in Kabat numbering, V domains shown)
VH: B1 VH with F65S, S105E
VL: B1 VL
B7: dBBDu183H S62Y/dBBDu072L (antibody, name in Kabat numbering, V domains shown)
VH: B1 VH with F65Y
VL: B1 VL
B8: dBBDu183H S100aD/dBBDu072L (antibody, name in Kabat numbering, V domains shown)
VH: B1 VH with F65S, S107D
VL: B1 VL
B9: dBBDu183H S100aN/dBBDu072L (antibody, name in Kabat numbering, V domains shown)
VH: B1 VH with F65S, S107N
VL: B1 VL
B10: dBBDu183H T100bN/dBBDu072L (antibody, name in Kabat numbering, V domains shown)
VH: B1 VH with F65S, T108N
VL: B1 VL
B11: dBBDu183H S99R/dBBDu072L (antibody, name in Kabat numbering, V domains shown)
VH: B1 VH with F65S, S105R
VL: B1 VL
B12: dBBDu183H S100aK/dBBDu072L (antibody, name in Kabat numbering, V domains shown)
VH: B1 VH with F65S, S107K
VL: B1 VL
B13: dBBDu183H S100aV/dBBDu072L (antibody, name in Kabat numbering, V domains shown)
VH: B1 VH with F65S, S107V
VL: B1 VL
B14: dBBDu183H S99G/dBBDu072L (antibody, name in Kabat numbering, V domains shown)
VH: B1 VH with F65S, S105G
VL: B1 VL
B15: dBBDu183H S62V/dBBDu072L (antibody, name in Kabat numbering, V domains shown)
VH: B1 VH with F65V
VL: B1 VL
B16: dBBDu183H S99D/dBBDu072L (antibody, name in Kabat numbering, V domains shown)
VH: B1 VH with F65S, S105D
VL: B1 VL
B17: dBBDu183H S62R/dBBDu072L (antibody, name in Kabat numbering, V domains shown)
VH: B1 VH with F65R
VL: B1 VL
B18: dBBDu183H S100aF/dBBDu072L (antibody, name in Kabat numbering, V domains shown)
VH: B1 VH with F65S, S107F
VL: B1 VL
B19: dBBDu183H S100aE/dBBDu072L (antibody, name in Kabat numbering, V domains shown)
VH: B1 VH with F65S, S107E
VL: B1 VL
B20: dBBDu183H S99T/dBBDu072L (antibody, name in Kabat numbering, V domains shown)
VH: B1 VH with F65S, S105T
VL: B1 VL
B21: dBBDu183H T100bE/dBBDu072L (antibody, name in Kabat numbering, V domains shown)
VH: B1 VH with F65S, T108E
VL: B1 VL
B22: dBBDu183H S62W/dBBDu072L (antibody, name in Kabat numbering, V domains shown)
VH: B1 VH with F65W
VL: B1 VL
B23: dBBDu183H S100aH/dBBDu072L (antibody, name in Kabat numbering, V domains shown)
VH: B1 VH with F65S, S107H
VL: B1 VL
B24: dBBDu183H S100aG/dBBDu072L (antibody, name in Kabat numbering, V domains shown)
VH: B1 VH with F65S, S107G
VL: B1 VL
B25: dBBDu183H S62G/dBBDu072L (antibody, name in Kabat numbering, V domains shown)
VH: B1 VH with F65G
VL: B1 VL
B26: dBBDu183H S100aW/dBBDu072L (antibody, name in Kabat numbering, V domains shown)
VH: B1 VH with F65S, S107W
VL: B1 VL
B27: dBBDu183H S100aY/dBBDu072L (antibody, name in Kabat numbering, V domains shown)
VH: B1 VH with F65S, S107Y
VL: B1 VL
B28: dBBDu183H S62H/dBBDu072L (antibody, name in Kabat numbering, V domains shown)
VH: B1 VH with F65H
VL: B1 VL
B29: dBBDu183H S62T/dBBDu072L (antibody, name in Kabat numbering, V domains shown)
VH: B1 VH with F65T
VL: B1 VL
B30: dBBDu183H T100bQ/dBBDu072L (antibody, name in Kabat numbering, V domains shown)
VH: B1 VH with F65S, T108Q
VL: B1 VL
B31: dBBDu183H T100bK/dBBDu072L (antibody, name in Kabat numbering, V domains shown)
VH: B1 VH with F65S, T108K
VL: B1 VL
B32: dBBDu183H S100aR/dBBDu072L (antibody, name in Kabat numbering, V domains shown)
VH: B1 VH with F65S, S107R
VL: B1 VL
B33: dBBDu183H S100aQ/dBBDu072L (antibody, name in Kabat numbering, V domains shown)
VH: B1 VH with F65S, S107Q
VL: B1 VL
B34: dBBDu183H S62N/dBBDu072L (antibody, name in Kabat numbering, V domains shown)
VH: B1 VH with F65N
VL: B1 VL
B35: dBBDu183H S99F/dBBDu072L (antibody, name in Kabat numbering, V domains shown)
VH: B1 VH with F65S, S105F
VL: B1 VL
B36: dBBDu183H S100aT/dBBDu072L (antibody, name in Kabat numbering, V domains shown)
VH: B1 VH with F65S, S107T
VL: B1 VL
B37: dBBDu183H S99K/dBBDu072L (antibody, name in Kabat numbering, V domains shown)
VH: B1 VH with F65S, S105K
VL: B1 VL
B38: dBBDu183H S99W/dBBDu072L (antibody, name in Kabat numbering, V domains shown)
VH: B1 VH with F65S, S105W
VL: B1 VL
B39: dBBDu183H S99H/dBBDu072L (antibody, name in Kabat numbering, V domains shown)
VH: B1 VH with F65S, S105H
VL: B1 VL
B40: dBBDu183H S62K/dBBDu072L (antibody, name in Kabat numbering, V domains shown)
VH: B1 VH with F65K
VL: B1 VL
B41: dBBDu183H S62Q/dBBDu072L (antibody, name in Kabat numbering, V domains shown)
VH: B1 VH with F65Q
VL: B1 VL
B42: dBBDu183H T100bD/dBBDu072L (antibody, name in Kabat numbering, V domains shown)
VH: B1 VH with F65S, T108D
VL: B1 VL
B43: dBBDu183H S99Y/dBBDu072L (antibody, name in Kabat numbering, V domains shown)
VH: B1 VH with F65S, S105Y
VL: B1 VL
B44: dBBDu183H T100bF/dBBDu072L (antibody, name in Kabat numbering, V domains shown)
VH: B1 VH with F65S, T108F
VL: B1 VL
B45: dBBDu183H T100bH/dBBDu072L (antibody, name in Kabat numbering, V domains shown)
VH: B1 VH with F65S, T108H
VL: B1 VL

Target: T1, Human CD3eg linker
Assay: SPR, vs unmutated H183/L072

Binder	fold change of affinity [fold]
B1	1.9
B2	0.8
B3	1.1
B4	1
B5	0.6
B6	0.3
B7	1.5
B8	0.6
B9	0.8
B10	1
B11	2
B12	0.9
B13	1
B14	1
B15	1.4
B16	0.3
B17	1.5
B18	1.6
B19	0.6
B20	0.9
B21	0.6
B22	2
B23	1.1

Binder	fold change of affinity [fold]
B24	1.2
B25	1.4
B26	1.6
B27	1.2
B28	1.3
B29	1.3
B30	1.1
B31	1.3
B32	0.6
B33	0.5
B34	1.4
B35	1
B36	0.9
B37	1.8
B38	0.9
B39	0.7
B40	1.4
B41	1.3
B42	0.6
B43	0.8
B44	1.2
B45	1.2
